Assay results reported in patent US20220324969A1 (MYTHIC THERAPEUTICS, published 2022).
Numbering of substitutions follows the chain as printed. Numbers in names are those of the source.

B1: MYT0482 (antibody, V domains shown)
VH: EVQLVQSGAEVKKPGSSVKVSCKASHYTITDSNIHWVRQAPGQSLEWIGYIYPYNGGTDYNQKFKNRATLTVDNPTNTAYMELSSLRSEDTDFYYCVNGNPWLAYWGQGTLVTVSS
VL: DIQLTQSPSTLSASVGDRVTITCRASESLDNYGIRFLTWFQQKPGKAPKLLMYAASNQGSGVPSRFSGSGSGTEFTLTISSLQPDDFATYYCQQTKEVPWSFGQGTKVEVK
notes: IgG; gemtuzumab VH variant #1 (G26H)
B2: MYT0485 (antibody, V domains shown)
VH: B1 VH with H26G, I29H
VL: B1 VL
notes: IgG; gemtuzumab VH variant #4 (I29H)
B3: MYT0484 (antibody, V domains shown)
VH: B1 VH with H26G, T28H
VL: B1 VL
notes: IgG; gemtuzumab VH variant #3 (T28H)
B4: MYT0487 (antibody, V domains shown)
VH: B1 VH with H26G, D31H
VL: B1 VL
notes: IgG; gemtuzumab VH variant #6 (D31H)
B5: MYT0486 (antibody, V domains shown)
VH: B1 VH with H26G, T30H
VL: B1 VL
notes: IgG; gemtuzumab VH variant #5 (T30H)
B6: MYT0483 (antibody, V domains shown)
VH: B1 VH with H26G, Y27H
VL: B1 VL
notes: IgG; gemtuzumab VH variant #2 (Y27H)
B7: MYT0488 (antibody, V domains shown)
VH: B1 VH with H26G, S32H
VL: B1 VL
notes: IgG; gemtuzumab VH variant #7 (S32H)
B8: MYT1366 (antibody, V domains shown)
VH: QVQLVQSGAEVKKPGASVKVSCKASGYTFTNYDINWVRQAPGQGLEWIGWIYPGDGSTKYNEKFKAKATLTADTSTSTAYMELRSLRSDDTAVYYCASGYHDAMDYWGQGTTVTVSS
VL: DIQMTQSPSSLSASVGDRVTINCKASQDINSYLSWFQQKPGKAPKTLIYRANRLVDGVPSRFSGSGSGQDYTLTISSLQPEDFATYYCLQYDEFPLTFGGGTKVEIK
notes: IgG; vadastuximab VH variant #32 (E101H)
B9: MYT2668 (antibody, V domains shown)
VH: B8 VH with H101E
VL: B8 VL with L54H
notes: IgG; vadastuximab VL variant #16 (L54H)
B10: MYT2655 (antibody, V domains shown)
VH: B8 VH with H101E
VL: B8 VL with S26H
notes: IgG; vadastuximab VL variant #3 (S26H)
B11: MYT2671 (antibody, V domains shown)
VH: B8 VH with H101E
VL: B8 VL with L89H
notes: IgG; vadastuximab VL variant #19 (L89H)
B12: MYT2679 (antibody, V domains shown)
VH: B8 VH with H101E
VL: B8 VL with T97H
notes: IgG; vadastuximab VL variant #27 (T97H)
B13: MYT2650 (antibody, V domains shown)
VH: B8 VH with F29H, H101E, D105H
VL: B8 VL
notes: IgG; vadastuximab VH combination #2 (F29H+D105H)
B14: MYT2672 (antibody, V domains shown)
VH: B8 VH with H101E
VL: B8 VL with Q90H
notes: IgG; vadastuximab VL variant #20 (Q90H)
B15: MYT2654 (antibody, V domains shown)
VH: B8 VH with H101E
VL: B8 VL with A25H
notes: IgG; vadastuximab VL variant #2 (A25H)
B16: MYT2659 (antibody, V domains shown)
VH: B8 VH with H101E
VL: B8 VL with N30H
notes: IgG; vadastuximab VL variant #7 (N30H)
B17: MYT2666 (antibody, V domains shown)
VH: B8 VH with H101E
VL: B8 VL with N52H
notes: IgG; vadastuximab VL variant #14 (N52H)
B18: MYT2667 (antibody, V domains shown)
VH: B8 VH with H101E
VL: B8 VL with R53H
notes: IgG; vadastuximab VL variant #15 (R53H)
B19: MYT2662 (antibody, V domains shown)
VH: B8 VH with H101E
VL: B8 VL with L33H
notes: IgG; vadastuximab VL variant #10 (L33H)
B20: MYT2652 (antibody, V domains shown)
VH: B8 VH with F29H, T30H, H101E, D105H
VL: B8 VL
notes: IgG; vadastuximab VH combination #4 (F29H+T30H+D105H)
B21: MYT2657 (antibody, V domains shown)
VH: B8 VH with H101E
VL: B8 VL with D28H
notes: IgG; vadastuximab VL variant #5 (D28H)
B22: MYT2676 (antibody, V domains shown)
VH: B8 VH with H101E
VL: B8 VL with F94H
notes: IgG; vadastuximab VL variant #24 (F94H)
B23: MYT2669 (antibody, V domains shown)
VH: B8 VH with H101E
VL: B8 VL with V55H
notes: IgG; vadastuximab VL variant #17 (V55H)
B24: MYT2675 (antibody, V domains shown)
VH: B8 VH with H101E
VL: B8 VL with E93H
notes: IgG; vadastuximab VL variant #23 (E93H)
B25: MYT2660 (antibody, V domains shown)
VH: B8 VH with H101E
VL: B8 VL with S31H
notes: IgG; vadastuximab VL variant #8 (S31H)
B26: MYT2664 (antibody, V domains shown)
VH: B8 VH with H101E
VL: B8 VL with R50H
notes: IgG; vadastuximab VL variant #12 (R50H)
B27: MYT2665 (antibody, V domains shown)
VH: B8 VH with H101E
VL: B8 VL with A51H
notes: IgG; vadastuximab VL variant #13 (A51H)
B28: MYT2653 (antibody, V domains shown)
VH: B8 VH with H101E
VL: B8 VL with K24H
notes: IgG; vadastuximab VL variant #1 (K24H)
B29: MYT2651 (antibody, V domains shown)
VH: B8 VH with T30H, H101E, D105H
VL: B8 VL
notes: IgG; vadastuximab VH combination #3 (T30H+D105H)
B30: MYT2658 (antibody, V domains shown)
VH: B8 VH with H101E
VL: B8 VL with I29H
notes: IgG; vadastuximab VL variant #6 (I29H)
B31: MYT2670 (antibody, V domains shown)
VH: B8 VH with H101E
VL: B8 VL with D56H
notes: IgG; vadastuximab VL variant #18 (D56H)
B32: MYT2674 (antibody, V domains shown)
VH: B8 VH with H101E
VL: B8 VL with D92H
notes: IgG; vadastuximab VL variant #22 (D92H)
B33: MYT2656 (antibody, V domains shown)
VH: B8 VH with H101E
VL: B8 VL with Q27H
notes: IgG; vadastuximab VL variant #4 (Q27H)
B34: MYT2677 (antibody, V domains shown)
VH: B8 VH with H101E
VL: B8 VL with P95H
notes: IgG; vadastuximab VL variant #25 (P95H)
B35: MYT1371 (antibody, V domains shown)
VH: B8 VH with H101E, Y106H
VL: B8 VL
notes: IgG; vadastuximab VH variant #37 (Y106H)
B36: MYT1370 (antibody, V domains shown)
VH: B8 VH with H101E, D105H
VL: B8 VL
notes: IgG; vadastuximab VH variant #36 (D105H)
B37: MYT2649 (antibody, V domains shown)
VH: B8 VH with F29H, T30H, H101E
VL: B8 VL
notes: IgG; vadastuximab VH combination #1 (F29H+T30H)

Target: T1, CD33 (Sino Biological, Cat #12238-H08H) (UniProt P20138 18-259)
Assay: BLI, IgG captured on anti-human Fc sensor, 50 nM CD33, pH 7.4 vs pH 5.0
From the text: Multiple CD33-binding monoclonal antibodies have been described in the literature and can be used as a template for engineering pH-dependent binding (Hamann P R et al (2002) “Gemtuzumab ozogamicin, a potent and selective anti-CD33 antibody-calicheamicin conjugate for treatment of acute myeloid leukemia.” Bioconjug Chem 13(1):47-58). Gemtuzumab (Heavy chain SEQ ID NO: 1, Light chain SEQ ID NO: 2) was selected as a CD33-binding monoclonal antibody for pH engineering via histidine scanning. Briefly, CDRs in the heavy chain were identified using the methods described by Kabat et al (Kabat et al. (1992) Sequences of Proteins of Immunological Interest, DIANE publishing) and IMGT (Lefranc M P (1999) “The IMGT unique numbering for Immunoglobulins, T cell receptors and Ig-like domains” The Immunologist 7, 132-136), and for each CDR, residues falling under either or both Kabat and IMGT CDR definitions were called as CDR residues. To generate pH-dependent sequence variants, individual amino acid residues within the heavy chain CDRs were systematically substituted with a histidine, one at a time (MYT0482-MYT0517). In cases where the starting CDR residue was a histidine, it was mutated to an alanine. Antibody variants with only one histidine or alanine mutation in a heavy chain CDR were generated by co-transfection of Expi293 cells with a) one heavy chain sequence variant, and b) the corresponding starting ABPC light chain using methods known to the art. After allowing for four days of protein expression, cell culture supernatants were collected, quantified by SDS-PAGE analysis, (FIG. 1), and the pH dependence of the variant was evaluated using biolayer interferometry (BLI) on an Octet RED 384 instrument. Briefly, cell culture supernatants were normalized to an antibody expression level of 25 μg/mL, and captured on an anti-human Fc sensor (Forte Bio). A baseline was established using 1×PBST (50 mM Potassium Phosphate Buffer+150 mM NaCl+0.05% Tween 20) pH 7.4, and the sensor was associated with 50 nM of CD33 (Sino Biological, Cat #12238) in 1×PBST pH 7.4 for 120 sec to generate an association curve. In the dissociation phase, the antibody-antigen complex on the sensor was exposed to 1×PBST pH 7.4 for 300-600 sec. Baseline, association, and dissociation were repeated using 1×MES (100 mM MES Buffer+150 mM NaCl+0.05% Tween 20) pH 5.0 throughout in a separate condition.

T1 sequence (P20138 18-259 limits assumed): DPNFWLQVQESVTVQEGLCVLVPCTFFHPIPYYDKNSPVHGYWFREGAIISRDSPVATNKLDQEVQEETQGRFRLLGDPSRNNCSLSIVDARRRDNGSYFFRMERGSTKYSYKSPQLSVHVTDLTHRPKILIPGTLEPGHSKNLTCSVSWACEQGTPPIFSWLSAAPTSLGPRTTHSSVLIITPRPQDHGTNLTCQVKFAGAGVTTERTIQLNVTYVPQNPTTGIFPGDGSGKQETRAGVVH

binding result	Binder
binds	B1
binds	B2
binds	B3
binds	B4
binds	B5
binds	B6
binds	B7

Target: T1, CD33 (Sino Biological, Cat #12238-H08H)
Assay: BLI, IgG captured on anti-human Fc sensor, 50 nM CD33, pH 7.4 vs pH 5.4

binding result	Binder
binds	B8
binds	B9
binds	B10
binds	B11
binds	B12
binds	B13
binds	B14
binds	B15
binds	B16
binds	B17
binds	B18
binds	B19
binds	B20
binds	B21
binds	B22
binds	B23
binds	B24
binds	B25
binds	B26
binds	B27
binds	B28
binds	B29
binds	B30
binds	B31
binds	B32
binds	B33
binds	B34
binds	B35
binds	B36
binds	B37
